{"source": "the domain aggregation screens of Martell et al. (2025)"}
{"test": "soluble fraction after stress (log2 fold change); higher = more stays soluble; pooled small domains, quantitative proteomics", "conditions": "stress: 75 degC"}
{"sequence": "HMELDFLRLQIITGIHSGRLSNNEILMMYDTYSQKGGNSYVSRIVNDYVDENNIKEEGKRNARK", "soluble fraction (log2)": -1.5}
{"sequence": "HMELDREALSDGLRRLSQLLAEDDIESRTLFRELAPGLKEQLGDDAVEKLAGHISRYEFEQAGALLATSG", "soluble fraction (log2)": -0.0504}
{"sequence": "HMELIELTVTEEFEMARLDQFLAGHLTQSRTYIQKLIKAGQITINGNLITRVKVPVHYGDFILINIPDPE", "soluble fraction (log2)": -3.68}
{"sequence": "HMELKFIGEAVNNPKRPLIAILGGAKVSDKIGVIENLLTKADKILIGGAMMFTFLKAEGKNIGTSLVED", "soluble fraction (log2)": 0.0754}
{"sequence": "HMELLEVSVIIREADSTGWSAARQGMEQAAADLGAELRFLTLSQSNSAEEQRSLLAREVEGGADAVVLV", "soluble fraction (log2)": -0.57}
{"sequence": "HMELNEMEAWSLVSKALRNGTYGAVEEFSRLPPTVQEAVGNPDNLRNWATSDYKAIETVIQSNFIKTY", "soluble fraction (log2)": -0.0842}
{"sequence": "HMELNILELKSKERKISLEDHLYIKSFNFDNETNEYFYRLAFNSSKDLKNFKATINNDKTISIINFEI", "soluble fraction (log2)": -3.67}
{"sequence": "HMELPVNSIRVPDVVGLSLREAMQAMTDAGVPWQSVQAKGVGFVSRQSPEAGTVTQLRRVRLELKLF", "soluble fraction (log2)": -2.8}
{"sequence": "HMELSPVDLGERLKIARETANFTQDAAAKAVGIARTTLVSIEKGQRTARLDEIQALSRFYGVSANALLR", "soluble fraction (log2)": -1.16}
{"sequence": "HMELTDRQKQIIEIVKKQQPISGEKIASILGFARATLRPDFSLLTMSGILQAKPKVGYLINEE", "soluble fraction (log2)": -0.63}
{"sequence": "HMELVEVGDLTGLTVEQAENVLKNSNISISIDKYDESDKYEKDQIISQNPQNKKVKKGTAIHVVLSNGP", "soluble fraction (log2)": 0.527}
{"sequence": "HMEMKMGHIISKLRYESGYSQVELAEKIGITKGAVGMYETDKRKPDYDTLIKLADLFNVSTDYLLS", "soluble fraction (log2)": -0.378}
{"sequence": "HMEMNDFETLRDMYLTGKIWNVGDIVEANGVRGKVIRKGTNYLSFVDEDNKVHKAWLYDIEE", "soluble fraction (log2)": 0.291}
{"sequence": "HMEMSLGEKLKQARLTKNFSQEYMAEVLQISQKTYSNFENNKTKPDFSQIEEISKVLETSILEFLT", "soluble fraction (log2)": -1.12}
{"sequence": "HMEMTGAHLRKKIRAKGFTFQQIADAIGESKQNLSQILSTNNIKTGTLERIAAAMGESVSYF", "soluble fraction (log2)": -0.00766}
{"sequence": "HMENDYTQAQFVQDLDSGVVREVIIIPNREAPTGYARVVFGDVVRELYATDIREVEALAREHGYEPTVED", "soluble fraction (log2)": 0.343}
{"sequence": "HMENFDNIFDQRLMPSLFIIRNINQAIENNNNNKFLLNSTISMKDKHWIEIHPHHLKLIISGYQT", "soluble fraction (log2)": -0.328}
{"sequence": "HMENIEVDFGVGDTVSVIGGAWKDTVGVVQAMNPNKQSLTINVELFGRETPVEISFTDVQKM", "soluble fraction (log2)": -0.166}
{"sequence": "HMENINIRNMGIRAVEAAIISLSPDQRTFTWGATNKKLVTVPYEENPYSALAAFFKTDDGIEIYDAIEKRL", "soluble fraction (log2)": -1.08}
{"sequence": "HMENNNIAFSKFLEEVDSGRVVQVEIQGNNISGTLSDGSKFKTYSPNYPDLVSKLSEKNVSIIASPV", "soluble fraction (log2)": 0.343}
{"sequence": "HMENPLVEVVVPVLNEERILKANIETLHHFLRTQPGFNFRITIADNGSTDKTQAIANDLTNSHAVIRV", "soluble fraction (log2)": -0.151}
{"sequence": "HMENPMIEQLKQFIEAQGLTQGQLAAKLGVSTATVNQYLQGKYKGDTAALDAKAAQLMARSREK", "soluble fraction (log2)": 0.169}
{"sequence": "HMENRILIPTAENIGERLDRYISSELDAPRSQVQIWIDSGLVAVSGGLKPKNYRLREGDEIEVTIPDPV", "soluble fraction (log2)": -0.11}
{"sequence": "HMENRLREVRDEIATRHGILPTVFINDRVLMNIHSKKPKDVSQLWQVDGISDEFIMKYGPEFIAEYKKKAK", "soluble fraction (log2)": -0.119}
{"sequence": "HMENRREYQKAIDYLSDQIRAGTLTVGSRLPTERAIAEALGISRNSTREALRTMENMGMIESKQGSGHYLT", "soluble fraction (log2)": -0.215}
{"sequence": "HMENTELIELRKKRNLSQSQLAELLDLTRNQIANYESGRRIPDQETKQIIAGFFEMPAEEIFAG", "soluble fraction (log2)": -0.086}
{"sequence": "HMENTFNENLRRIRKEKKITQEQLAEFVGVSPQAVSKWEMNSFPDASLLPKIAEKLEVSIDELFGLK", "soluble fraction (log2)": 0.205}
{"sequence": "HMENTVVMPNLLGKTMTEAKIELKDLSISITLKGSENSSQYAAGQIISQSVDSGTRVAVGSSVEVTIAGS", "soluble fraction (log2)": -0.843}
{"sequence": "HMENVIYGINGPVVTVRNSRSFSMMEMVFVGNERLVGEVIGITDKITTIQVYEETTGLRPGEPVYGTGSPM", "soluble fraction (log2)": -3.8}
{"sequence": "HMENVRKTEWVTISNDKSQTRTTVYFESGNQKLDKHPQIQGFEYQRTYVEGGVKYYLFVEKGTKLDE", "soluble fraction (log2)": 0.0189}
{"sequence": "HMENYGEAITYIHGMIEDSSEKMLAASKALKVNANTLIKFMKDPYSVAAHIRDRIVENLANLEKAVKAI", "soluble fraction (log2)": -0.254}
{"sequence": "HMENYYMPVVAGQSEQDAKSMLNAMKLSLSIQVQEQESDSVAKGLAIGTSPAAGSQIRKGSSVILYISKGA", "soluble fraction (log2)": -0.844}
{"sequence": "HMEPALYRLFMAHPELNASAVARRLGIAQSLLAQYISGSKKPSPERERMILTEIHKIGEELATAS", "soluble fraction (log2)": -0.938}
{"sequence": "HMEPAPPPAAPPADPELQKRIDKLVEYIGKNGPEFEAVIRDKQHDNPDYAFVFGGEGHAYYRYLLWLLPRP", "soluble fraction (log2)": -0.466}
{"sequence": "HMEPELLTTKQVASVMNIGEERARAILLSRGVQPVSLPWGKERKTLRWSRRAVMTVIDTLHAEAQAKAGV", "soluble fraction (log2)": -2.59}
{"sequence": "HMEPLPDIPRGTRVSHQTAPADGDMPERRETGWTMTEPIRAQDGLAYVGVSVYGRGVVMLPVNSLSII", "soluble fraction (log2)": -0.384}
{"sequence": "HMEPSAQEIANKLLGHVKSLGLPITGLSISYNSTSDLATVRGQVQSQADREKIILAVGNVDHVAKVDDQLT", "soluble fraction (log2)": -0.028}
{"sequence": "HMEPSQEFSLADMVAYDLTGYPKSAALRAAVGASLGIGYGNAKQFVYRLNHYGISKDDFHRAAQEALDGL", "soluble fraction (log2)": -1.1}
{"sequence": "HMEPTAEQLKAIRQFASVNGRSWKSELRYLWETGAYHRAALGGADPGYLQQVRNQFGPGWLRAFKISK", "soluble fraction (log2)": -1.87}
{"sequence": "HMEPTPREIVVQQLGYRGLEVLGNAEYQFPKETQIIILKLAELISSGSVTETLEGGKLLALFRGVGINVR", "soluble fraction (log2)": -1.55}
{"sequence": "HMEPVQPVMYSEFIESVERGEVVEATIQGDKIIATDRSGNRYTVVGSAKDPQLVGQLLERNVAFKFVEE", "soluble fraction (log2)": 0.118}
{"sequence": "HMEQAMIVILKENPDRRQLEFLTGWLQKQQIGIHISEGAHQTVLGLVGDATRLDIDMLKQMEIVEDVKRVQ", "soluble fraction (log2)": -0.823}
{"sequence": "HMEQGDTQQEIREKILNLLADGERHMITELKNIRTDQPIDDDKIVGKTLKTLLDEEEVYMDGSYIQLNG", "soluble fraction (log2)": 0.653}
{"sequence": "HMEQIGSIIKDIRKKNNLTQNEFASILGVTFQAVSKWENDKSIPDITILKDISNKFNVDLNYLISG", "soluble fraction (log2)": -0.405}
{"sequence": "HMEQISVPIFTNDELVTFARSYSGELGYKIDDMAVLALYNRISNIQRLDQATTLTEVKDIVDEAVAKSE", "soluble fraction (log2)": 0.096}
{"sequence": "HMEQLESAVASRTLIGQAQGVIMERYGLSAPNAFSVLSRISQDSNTKLAEVAQQIVATRRIPG", "soluble fraction (log2)": -0.093}
{"sequence": "HMEQLNKNIKFDNFLESLNFINKVSEVAEEENHHPDLKFGWGYADITIFTHAIKGLSEGDFVLAAKIDVI", "soluble fraction (log2)": 0.19}
{"sequence": "HMEQMSLISKKKGERIDKFLGENLGDLSRSYIQKLLKDGLILVNGKKVKANYKLNEGDQIDVEVPDP", "soluble fraction (log2)": 0.327}
{"sequence": "HMEQMSPYPNPSKGKIQFHNQEPMDIKVFNSLGQIVFEQRILSRAILDLSRLSPGQYIVQAGEQKNIWIK", "soluble fraction (log2)": -1.64}
{"sequence": "HMEQPPVPSVSITAALGSAVARRLAPHGFQKMPDLVDAYRAGKLAQISGIGGTTLDLIREWLTANARQQ", "soluble fraction (log2)": -0.441}
{"sequence": "HMEQQEFIVPHDSEGQRLDLFLVSVLGTHSRSQIRKLIVNGHVKLENRAPRPNLPVRAGESVVVSMPEPT", "soluble fraction (log2)": -0.849}
{"sequence": "HMEQQSIYLENRERMTINQVIDVDAFDEETLWANLKEGAVEISGSGLHIEKLDLAEGVLIVSGIIRAFAYV", "soluble fraction (log2)": -0.856}
{"sequence": "HMEQQVDYTQFIQDVRQGQIREVDVDRNGVINGIKRSGENFVTVIPGGYDRDLINDLVKQGVNATGEL", "soluble fraction (log2)": 0.25}
{"sequence": "HMEQVKFFDAKVITTPPNRLKTRYTPAGNLRPEADWLQSGAIVPVYETSGAGWYRIGYQTWASAEWMQRLD", "soluble fraction (log2)": -2.8}
{"sequence": "HMEQVSDPALLERYAKEVVAASPKAVADYQAGNAKAFQALVGQMMKRTKGKGDPALIREILQKL", "soluble fraction (log2)": 0.0645}
{"sequence": "HMEQVTMSNFLDKWGTSTKSPNAWYTSLSPMQKAEAKLLKEESGLTWNKWYEKNIYVGDGTN", "soluble fraction (log2)": 0.985}
{"sequence": "HMERAYGVRVSLRLDDPFRTLLGADWSRTHWFASAEERDAALLEMSRKHEFSRPGDQPALVYEKVQN", "soluble fraction (log2)": -1.26}
{"sequence": "HMERDVNQLTPRERDILKLIAQGLPNKMIARRLDITESTVKVHVKHMLKKMKLKSRVEAAVWVHQERI", "soluble fraction (log2)": -1.55}
{"sequence": "HMEREQNILQGREVVERELRRLGLAEAYTVSDIAKALKFDDEEQFLAKVGFGDIQSRQISGAIALMEKN", "soluble fraction (log2)": -0.0753}
{"sequence": "HMERFLENAIPVLGETGLDIKSATEDFENALIRQALHLSGGNKNRAATLLGLKRTTFVEMLKRKSL", "soluble fraction (log2)": -1.12}
{"sequence": "HMERFMEFVITDTQQGQRLDVVLTETTEHLGSRSHMQRSIRAGLVSIDGITTTRASTKVSSGQIIRVEPT", "soluble fraction (log2)": -1.42}
{"sequence": "HMERGEFQKLGRATLEQTLARAGKTLAEVSLKAMLETFAFAAEEDLYEALGRGRVSAAKVGETLFPALKGR", "soluble fraction (log2)": -0.85}
{"sequence": "HMERKMKNNISDQTTYDTDKILNFNGKGYLNGLVIPNNYQIKEEGYYVFRQVALDGREQILYFTIQDLS", "soluble fraction (log2)": -1.98}
{"sequence": "HMERLSVSMGDMVVFVRDAVEAFRGLVKEKGITLTFESKVEHFYMNYDHDKVYKVVNNLLSNAVKFT", "soluble fraction (log2)": -0.145}
{"sequence": "HMERLTVVPELLKRSLSEAQPLVTSARLRLEVSGGAPEDTSRAIVVGQKPPPGTRVQVGTTVIVTVQIQRP", "soluble fraction (log2)": -0.534}
{"sequence": "HMERPYNGKQMEYHEGGVEKKETLFVEGGLSRVIQWDESGQKRSEVNISPTGVRREQYWDSSGKAIAKPS", "soluble fraction (log2)": 0.14}
{"sequence": "HMERQAEAWTNRASALISLGRDEEALEAADRAIELDPRLSKAWIDRSTALSNLGRNDEANEAIQMAMFL", "soluble fraction (log2)": -0.12}
{"sequence": "HMERQILFTKEDLIEFGLSGGTDSRKRRDVLGHILGIGYSNSKQFLNRLNNFGVTREEFLSAIERIG", "soluble fraction (log2)": -0.816}
{"sequence": "HMERTVEVVDINDVFSQFLRLYSRERAAGLLSVFKRVEHGLSWQGNPVLLERILSNVFENAIKYAA", "soluble fraction (log2)": 0.149}
